Results taken from article PMC8068094.

Tests used:
[1] = target: Munc13L with C-terminal Halo tag (Munc13-1 residues 529-1735, C1-C2B-MUN-C2C domains, residues 1408-1452 replaced by EF) (UniProt Q62768); assay: two-colour TIRF co-localisation on a supported lipid bilayer
[2] = target: Munc13L with C-terminal Halo tag (Munc13-1 residues 529-1735, C1-C2B-MUN-C2C domains, residues 1408-1452 replaced by EF) (UniProt Q62768); assay: two-colour step-bleaching of co-clusters on a supported lipid bilayer

single-cysteine (S28C) version of SNAP25^WT labeled with AlexaFluor555 (from UniProt P60879 1-206) (natural protein)
Manders' coefficient (SNAP25:Munc13L) at 50 nM Munc13L [1]: 0.2 | Manders' coefficient (SNAP25:Munc13L) at 1 μM Munc13L [1]: 0.6 | Manders' coefficient at 1 μM Munc13L [1]: 0.7 | stoichiometry N (mole SNAP25/mole Munc13L) [2]: 0.8
